Test results reported in the supplement of paper PMC9233669.
Variants at the floor of the assay were thinned out.

Assays:
biotinyl-Trp-oxazolone = test: self-aminoacylation, catalytic enhancement (BWO) (fold over background); higher = more active; k-Seq, kA / k0A0; sequences stand for … in GGGAAUGGAUCCACAUCUACGAAUUC…UUCACUGCAGACUUGACGAAGCUG
In short: (§1)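 Mutagenized RNA pools (0.43 μM; 21-nt variable region) were treated with 2–1250 μM of each biotinyl-aminoacyl-oxazolone. Conditions were 50 μL HEPES/NaCl/KCl/MgCl2/CaCl2 buffer, 5% acetonitrile, pH 6.9–7.0, room temperature, 90 minutes. Catalytic enhancement, the median kA relative to the uncatalyzed rate, was derived from streptavidin capture, qPCR and Illumina sequencing.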

biotinyl-Met-oxazolone = test: self-aminoacylation, catalytic enhancement (BMO) (fold over background); higher = more active; k-Seq, kA / k0A0; sequences stand for … in GGGAAUGGAUCCACAUCUACGAAUUC…UUCACUGCAGACUUGACGAAGCUG
In short: as §1

biotinyl-Ile-oxazolone = test: self-aminoacylation, catalytic enhancement (BIO) (fold over background); higher = more active; k-Seq, kA / k0A0; sequences stand for … in GGGAAUGGAUCCACAUCUACGAAUUC…UUCACUGCAGACUUGACGAAGCUG
In short: as §1

biotinyl-Val-oxazolone = test: self-aminoacylation, catalytic enhancement (BVO) (fold over background); higher = more active; k-Seq, kA / k0A0; sequences stand for … in GGGAAUGGAUCCACAUCUACGAAUUC…UUCACUGCAGACUUGACGAAGCUG
In short: as §1

biotinyl-Phe-oxazolone = test: self-aminoacylation, catalytic enhancement (BFO) (fold over background); higher = more active; k-Seq, kA / k0A0; sequences stand for … in GGGAAUGGAUCCACAUCUACGAAUUC…UUCACUGCAGACUUGACGAAGCUG
In short: as §1

biotinyl-Leu-oxazolone = test: self-aminoacylation, catalytic enhancement (BLO) (fold over background); higher = more active; k-Seq, kA / k0A0; sequences stand for … in GGGAAUGGAUCCACAUCUACGAAUUC…UUCACUGCAGACUUGACGAAGCUG
In short: as §1

| Sequence | self-aminoacylation (biotinyl-Trp-oxazolone) | self-aminoacylation (biotinyl-Met-oxazolone) | self-aminoacylation (biotinyl-Ile-oxazolone) | self-aminoacylation (biotinyl-Val-oxazolone) | self-aminoacylation (biotinyl-Phe-oxazolone) | self-aminoacylation (biotinyl-Leu-oxazolone) |
| --- | --- | --- | --- | --- | --- | --- |
| AUUACCCUCGUCCUCGAGUGA [Fam2.1 aminoacylation ribozyme variant] | 6.18 | 4.67 | 2.48 | 2.4 | 34.7 | 5.49 |
| AUUCACCUAUGUCUUCGGGUG [Fam2.2 aminoacylation ribozyme variant] | 2.35 | 2.42 | 2.11 | 2.02 | 14.7 | 2.67 |
| AUUACCGUGAUCAUCGAGUGA [Fam2.1 aminoacylation ribozyme variant] | 10.5 | 9.07 | 4.18 | 4.34 | 44.9 | 8.78 |
| AUUACCCUGGUCAUCGAGUGG [Fam2.1 aminoacylation ribozyme variant] | 52.1 | 56.9 | 16.3 | 18.5 | 361 | 55.4 |
| AUUACCCCGGUCGUCGAGUGA [Fam2.1 aminoacylation ribozyme variant] | 0.938 | 1.39 | 0.914 | 1 | 2.06 | 1.41 |
| CAACACUUCAGGCAAUCGGUC [Fam1B.1 aminoacylation ribozyme variant] | 1.3 | 1.12 | 1.43 | 1.19 | 1.27 | 1.34 |
| CAGUUUGCUAAUAGCCGCAAG [Fam3.1 aminoacylation ribozyme variant] | 1.07 | 1.26 | 1.86 | 1.46 | 1.44 | 1.69 |
| AGUCACCUAGUUCAUCGGGUG [Fam2.2 aminoacylation ribozyme variant] | 5.16 | 4.14 | 3.71 | 3.29 | 24 | 4.05 |
| GUCACCCUGGUCAUCGAGUGA [Fam2.1 aminoacylation ribozyme variant] | 10.6 | 7.39 | 5.2 | 5.25 | 45.7 | 7.9 |
| CGACACUUCAAGCAAUCGGCC [Fam1B.1 aminoacylation ribozyme variant] | 3.53 | 1.79 | 3.11 | 3.32 | 3.39 | 2.84 |
| AUUACCGUGGACAUCGAGUGA [Fam2.1 aminoacylation ribozyme variant] | 5.62 | 3.47 | 2.29 | 2.68 | 3.62 | 3.92 |
| CUAGUUCAAACAAUCGGUCAG [Fam1A.1 aminoacylation ribozyme variant] | 1.2 | 0.731 | 0.714 | 0.753 | 2.03 | 0.692 |
| CUACUUAAAACAAUCGGGCUG [Fam1A.1 aminoacylation ribozyme variant] | 0.924 | 1.05 | 1.31 | 1.02 | 0.623 | 0.999 |
| AUUCACCCAGGUCAGCGGGUG [Fam2.2 aminoacylation ribozyme variant] | 4.34 | 3.76 | 2.93 | 2.73 | 18.4 | 5.61 |
| CUACUUCAAACAUUCGGUCUA [Fam1A.1 aminoacylation ribozyme variant] | 0.89 | 0.882 | 1.03 | 1.02 | 0.783 | 0.766 |
| CCACAUUUCAAGCAACCGGUC [Fam1B.1 aminoacylation ribozyme variant] | 1.34 | 1.09 | 1.53 | 1.64 | 1.11 | 1.11 |
| AUUCACCGAGGUCACCGGGUG [Fam2.2 aminoacylation ribozyme variant] | 8.69 | 9.61 | 6.91 | 5.88 | 74.9 | 10.8 |
| CCACACGUCAAGCACUCGGUC [Fam1B.1 aminoacylation ribozyme variant] | 1.1 | 1.13 | 1.17 | 2.17 | 2.16 | 1.23 |
| AUCACCCAGGUCAUCGAGUGA [Fam2.1 aminoacylation ribozyme variant] | 8.46 | 7.75 | 4.04 | 4.61 | 30.4 | 8.69 |
| AUGGACCUAGGUCAUCGGGUG [Fam2.2 aminoacylation ribozyme variant] | 4.36 | 3.77 | 3.46 | 3.04 | 22 | 4.55 |
| AUUACCCUGGUUAUCGAGUGA [Fam2.1 aminoacylation ribozyme variant] | 10.3 | 8.65 | 3.83 | 4.27 | 25.2 | 8.64 |
| AUUACCCUGUUAAUCGAGUGA [Fam2.1 aminoacylation ribozyme variant] | 13.4 | 9.91 | 4.91 | 5.36 | 54.5 | 9.68 |
| AUUACCAUUGUCAUCGAGUGA [Fam2.1 aminoacylation ribozyme variant] | 10.4 | 7.41 | 4.32 | 4.25 | 40.4 | 8.46 |
| CUACUUCAAACAAUCGGUUGG [Fam1A.1 aminoacylation ribozyme variant] | 1.82 | 0.619 | 0.843 | 0.812 | 3.55 | 0.788 |
| CUAUUUCAAACAAUCGGGCUG [Fam1A.1 aminoacylation ribozyme variant] | 1.88 | 1.08 | 1.24 | 1 | 2.05 | 0.844 |
| AUCACCCUUGUCAUCGAGUGA [Fam2.1 aminoacylation ribozyme variant] | 10.7 | 9.48 | 4.65 | 4.91 | 59.7 | 10.1 |

| Sequence | self-aminoacylation (biotinyl-Trp-oxazolone) | self-aminoacylation (biotinyl-Met-oxazolone) | self-aminoacylation (biotinyl-Ile-oxazolone) | self-aminoacylation (biotinyl-Val-oxazolone) | self-aminoacylation (biotinyl-Phe-oxazolone) | self-aminoacylation (biotinyl-Leu-oxazolone) |
| --- | --- | --- | --- | --- | --- | --- |
| AUACACCUAGGUAAUCGGGUG [Fam2.2 aminoacylation ribozyme variant] | 3.83 | 2.84 | 1.93 | 2.18 | 12.3 | 2.07 |
| CCAAACCUCAAGCAAUCGGUC [Fam1B.1 aminoacylation ribozyme variant] | 1.22 | 1.12 | 1.35 | 1.29 | 1.54 | 1.27 |
| AUACUUCAAACAAUCCGUCUG [Fam1A.1 aminoacylation ribozyme variant] | 1.17 | 1.05 | 1.04 | 0.918 | 1.42 | 1.09 |
| AUUCGCCUGGUCAUCGAGUGA [Fam2.1 aminoacylation ribozyme variant] | 6.48 | 4.4 | 3.01 | 3.17 | 16.6 | 4.99 |
| GUUACCCUGGUCAUCGAGUGG [Fam2.1 aminoacylation ribozyme variant] | 50 | 57.2 | 15 | 17.4 | 402 | 58.4 |
| CUCCUUCAAACAAUCGGCCUG [Fam1A.1 aminoacylation ribozyme variant] | 61.7 | 2.63 | 2.04 | 2.15 | 131 | 3.39 |
| AUUACCCUAGUCAUCCAGUGA [Fam2.1 aminoacylation ribozyme variant] | 3.28 | 2.29 | 1.91 | 1.94 | 3.4 | 2.86 |
| AAGUGUGCUAAUAGUCGCAAA [Fam3.1 aminoacylation ribozyme variant] | 1.88 | 2.07 | 1.79 | 1.41 | 2.76 | 1.52 |
| CCACCCGUCAAGCAAUCGGUC [Fam1B.1 aminoacylation ribozyme variant] | 1.08 | 1.2 | 1.24 | 1.44 | 1.12 | 1.12 |
| AAGUUUCCUAAUCGUCGCAAG [Fam3.1 aminoacylation ribozyme variant] | 0.618 | 0.973 | 0.879 | 0.893 | 1 | 0.896 |
| ACUGCCCUGGUCAUCGAGUGA [Fam2.1 aminoacylation ribozyme variant] | 37.1 | 36 | 13.4 | 14.9 | 269 | 34.1 |
| CCACACUAGAAGCAAUCGGUC [Fam1B.1 aminoacylation ribozyme variant] | 0.873 | 0.747 | 0.809 | 0.961 | 0.713 | 0.954 |
| CCACACUUCUAGCACUCGGUC [Fam1B.1 aminoacylation ribozyme variant] | 0.913 | 0.748 | 0.819 | 0.783 | 0.649 | 0.702 |
| AUUCACCUAGGUCAUCAGGAG [Fam2.2 aminoacylation ribozyme variant] | 0.779 | 0.951 | 0.957 | 1.09 | 0.931 | 1.01 |
| CUACUUCAAACAAUCCUUCUG [Fam1A.1 aminoacylation ribozyme variant] | 0.528 | 0.577 | 0.603 | 0.665 | 1.04 | 0.469 |
| AUUCUCCUAGGUCAACGGGUG [Fam2.2 aminoacylation ribozyme variant] | 5.38 | 6.57 | 3.79 | 3.61 | 46.7 | 8.2 |
| CUCCGUCAAACAAUCGGUCUG [Fam1A.1 aminoacylation ribozyme variant] | 1.29 | 1.02 | 1.07 | 0.973 | 1.97 | 0.889 |
| CUACUUGAAACAAUGGGUCUG [Fam1A.1 aminoacylation ribozyme variant] | 1.61 | 1.65 | 1.3 | 1.13 | 0.694 | 1.13 |
| AAGUUUUCUACUAGUCGCAAG [Fam3.1 aminoacylation ribozyme variant] | 1.86 | 1.67 | 1.99 | 1.51 | 3.09 | 1.79 |
| AUUACCCUGGACACCGAGUGA [Fam2.1 aminoacylation ribozyme variant] | 3.99 | 4.14 | 2.15 | 1.83 | 4.62 | 3.5 |
| AUUACCCUGGUCAUCUAGUGA [Fam2.1 aminoacylation ribozyme variant] | 11.3 | 9.61 | 4.51 | 4.83 | 42.9 | 9.15 |
| CUACUUCAAACAAACGUUCUG [Fam1A.1 aminoacylation ribozyme variant] | 0.591 | 0.529 | 0.591 | 0.622 | 0.686 | 0.579 |
| AAGUUUGGUAAUAGUCGCAGG [Fam3.1 aminoacylation ribozyme variant] | 2.18 | 1.39 | 1.47 | 1.4 | 2.19 | 1.7 |
| CCACAAUUCAAGAAAUCGGUC [Fam1B.1 aminoacylation ribozyme variant] | 1.41 | 0.78 | 0.949 | 0.906 | 1.38 | 0.866 |
| AAGUUUGCUAAUAGCCACAAG [Fam3.1 aminoacylation ribozyme variant] | 0.834 | 0.55 | 0.821 | 0.827 | 1.59 | 0.833 |
